First the molecules themselves.
T1: endogenous human APOL1 (wild-type immortalized podocytes; also JHH-1 cells, kidney and liver tissue) (human, UniProt O14791 28-398)
T1 construct: whole, on cells; Cell or tissue and permeabilization are told under assay; also called podocyte APOL1; endogenous APOL1
T1 sequence (looked up): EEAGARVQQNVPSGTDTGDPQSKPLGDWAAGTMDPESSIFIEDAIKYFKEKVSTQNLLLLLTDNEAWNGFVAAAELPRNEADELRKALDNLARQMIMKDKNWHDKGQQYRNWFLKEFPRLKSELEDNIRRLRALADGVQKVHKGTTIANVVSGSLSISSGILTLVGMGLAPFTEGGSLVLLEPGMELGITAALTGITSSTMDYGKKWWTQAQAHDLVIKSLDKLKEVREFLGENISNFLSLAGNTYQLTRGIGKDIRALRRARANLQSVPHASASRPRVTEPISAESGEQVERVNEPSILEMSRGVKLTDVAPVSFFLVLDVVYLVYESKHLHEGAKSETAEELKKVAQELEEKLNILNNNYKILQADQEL

T2: gD-SRA-ID-GPI (construct e) (human, UniProt O14791 305-398, C-terminal GPI anchor)
T2 sequence: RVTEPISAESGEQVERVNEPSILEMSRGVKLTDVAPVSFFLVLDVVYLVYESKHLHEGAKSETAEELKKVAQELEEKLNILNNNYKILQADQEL

T3: circulating APOL1 in normal human serum (human, UniProt O14791 28-398)
T3 construct: mature; Serum of healthy volunteers; lipoprotein-associated; also called serum APOL1; HDL APOL1
T3 sequence (looked up): T1 sequence (looked up)

B1: antibody 3.1C1 (antibody, V domains shown)
VH: QVQLQQSGPELVKPGASVRISCKASGYTFTNYFIHWVKQRPGQGLEWIGWINPGNLNTKYTEEFKGKATLTADKSSSTAYIQLNSLTSEDSAVYFCVNGNPFVYWGQGTLVTVSA
VL: DIVMTQSPSSLTVIAGEKVTLNCKSSQSLLNSGNQKKYLTWLQQKPGQPPKLLIYWTSTRDSGVPDRFTGSGSGTDFTLTISSVQAEDLAVYYCQNDYSYPLTFGAGTKLEIKR
notes: Mouse mAb, cloned as murine IgG2a LALAPG; not written separately; also called SRA-ID mAb 3.1C1
B2: antibody 3.6E10 (antibody, V domains shown)
VH: QVQLQQSGAELAKPGASVKMSCKASGYIFTSYYLHWVKQRPGQGLEWIGYINPNTGYTEYTQNFKDRATLTADKSSSTAYMQLTSLTSEDSAVYFCVNGNPFVYWGQGTLVTVSA
VL: B1 VL with I14T, A15T, L21M, N22T, K24R, K37N, L42F, D61Y
notes: Mouse mAb, cloned as murine IgG2a LALAPG
B3: rabbit monoclonal antibody 5.17D12 (antibody, V domains shown)
VH: QSLEESGGDLVKPGASLTLTCTASGFSFSSNYYMCWVRQAPGKGLEWIACVYVGSGGSTYYASWAKGRFTFSKTSSTTWTLQMTSLTAADTATYFCARDLSYAGDLWGPGTLVTVSS
VL: DPVMTQTPASVSEPVGGTVTINCQASESISSYLAWYQQKPGQPPKLLIYGASNLASGVPSRFKGSGSGTEYTLTISDLECDDAATYYCQSAYYSNSGGHAFGGGTEVVVKG
notes: Rabbit mAb (Method #5), recombinant; also called rabmab 5.17D12
B4: antibody 4.12E5 (antibody, V domains shown)
VH: EVQLQQSGPELVKTGASVKISCKASGYSFTGYFMHWVKQSHGKSLEWIGYISCYNGASVYNQRFKGKATFTIDTSSSTAYMQFNSLTSEDSAVYYCARDVLRYPRYAVDYWGQGTSVTVSS
VL: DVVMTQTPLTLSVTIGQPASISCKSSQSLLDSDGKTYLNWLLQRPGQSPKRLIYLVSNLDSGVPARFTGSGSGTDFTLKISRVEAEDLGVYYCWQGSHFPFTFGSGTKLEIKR
notes: as for B2
B5: antibody 3.6D12 (antibody, V domains shown)
VH: EVMLVESGGGLVRPGGSLKLSCTASGFTFSRCAMSWVRQTPEKRLEWVSAISRDSTYTYYSDSVKGRFTVSRDNAKNTLYLQMSSLRSEDTAMYYCARQIDDYYVDALDYWGQGTSVTVSS
VL: DVQITQSPSYLAASPGETITINCRASKIISKYLAWYQEKPGKTIKLLIYSGFTLQSGIPSRFSGSGSGTDFTLTISSLEPEDFAMYYCQQHNEYPLTFGAGTKLEIKR
notes: Mouse mAb (Method #3), cloned as murine IgG2a LALAPG; Early screens used hybridoma-purified antibody; also called mAb 3.6D12
B6: antibody 4.17A5 (antibody, V domains shown)
VH: QVQLQQSGPELLKPGASVKISCKGSGYAFSNSWINWVKLRPGQGLEWIGRIYPGDGDTKYNGKFKGKATLTADKSSSTAHMQLRSLTSVDSAVYFCARFPFGKYEGPGAMDYWGQGTSVTVSS
VL: DIQMTQTTSSLSASLGDRVTISCRASQDISSYLNWYQQKPDGTIKLLIYYTSRLHSGVPSRFSGSGSGTDFSLTISNLEQEDIATYFCQQGNTLPYTFGGGTKLEIKR
notes: Mouse mAb (Method #4), cloned as murine IgG2a LALAPG; also called mAb 4.17A5

Residue numbers refer to the chain shown, from its start.

The first assay has as its target T1, endogenous human APOL1 (wild-type …). The assay is described as follows: summary of the Examples: podocyte flow cytometry. As for the experimental part: Cells were harvested with 5 mM EDTA in PBS, washed once with growth media and twice with PBS. Approximately 0.5×10⁶/m1 of cells resuspended in PBS were incubated with anti-APOL1 antibodies for 1 h on ice. Following two PBS washes, 2 μg/ml of Alexa488 anti-mouse or anti-rabbit (Invitrogen A11029 and A21206, respectively) was used for 1 h on ice for detection. Cells were washed twice in PBS and resuspended in PBS with 1 μg/ml propidium iodide. Signals were read in a FACSCalibur3 (Becton Dickinson), with the exception of FIG. 8A and FIG. 14, which used a FACSCelesta, and data was analyzed using FlowJo v8.4.5. Mean fluorescence intensities were plotted in PRISM v7 after subtraction of secondary antibody alone background. For low pH experiments, cells were incubated with the antibodies in the presence of PBS pH 7.0 or PBS pH 5.5 for an hour on ice and detected with secondary antibodies at neutral pH.
Turning to B1, the binding result is given as “binds”.

As for B2, the binding result is recorded as “binds”.

Consider B3, for which the binding result was “binds”.

As for B4, the binding result was “binds”.

A further assay has as its target T2, gD-SRA-ID-GPI (construct e). The assay is described as follows: flow cytometry, live CHO cells expressing the construct, 5 µg/ml. As for the experimental part: Stably transfected live (not fixed or permeabilized) CHO cells expressing the gD-iAPOL1-GPI constructs indicated in FIGS. 1A-1E after induction with 5 μg/ml dox for 48 h, showing differential antibody binding at 5 μg/ml. […] White histograms are Alexa488 anti-mouse or anti-rabbit secondaries only; grey histograms are the anti-APOL1 signals. A representative histogram for each category is shown: 3.7D6 for PFD; 3.3A8 for C-terminus of MAD, 3.5H9 for N-terminus of MAD; 3.1C1 for SRA-ID; 3.2D4 for multi-domain; 3.3F7 for conformational and 3.5B10 for FACS-negative (FACS-ve). The prefix 3 in the name of the antibodies denotes murine monoclonals from Method #3 (as shown in Example 1 below); other antibodies (not illustrated here) starting with the number 4 are murine monoclonals derived from mice additionally boosted with SRA-ID protein; and prefix 5-named antibodies are rabbit monoclonals from Method #5 (Table 2A; and Example 2). […] The Sigma polyclonal (HPA018885, raised to aa 263-387) and the Epitomics rabbit monoclonal (EPR2907(2), raised to an undisclosed peptide) are SRA-ID binders. […]
Cells were harvested with 5 mM EDTA in PBS, washed once with growth media and twice with PBS. […] Signals were read in a FACSCalibur3 (Becton Dickinson), with the exception of FIG. 8A and FIG. 14, which used a FACSCelesta, and data was analyzed using FlowJo v8.4.5.
As to B1, the binding result is listed as “binds”.

A further assay concerns the target T3, circulating APOL1 in normal human serum. The assay is described as follows: summary of the Examples: trypanolysis blocking as proxy for serum APOL1. As for the experimental part: The trypanolysis assay used herein to text specificity of antibodies for serum APOL1 is as follows. Trypanosoma brucei brucei were obtained from ATCC and cultured in HMI-9 media containing IMDM (Genentech), heat-inactivated (56° C. for 30 min) FBS (Seradigm IXL9/06807/GEN), 1% serum plus (Sigma 14008C), HMI-9 (Genentech) and 1% hypoxanthine (Genentech). Trypanosome lysis was performed by treating 1×10⁵ Trypanosomes with serial dilutions of NHS or recombinant APOL1 for 16 h in a total of 100 μl. Live cell read out was done by the Alamar Blue assay as per the manufacturer's protocol, (Thermo Fisher, DAL1100). Briefly 10 μl of Alamar Blue was added to each well, incubated at 37° C. for 4 h. Red fluorescence, indicating live trypanosomes, was measured on a SpectraMax® fluorimeter powered by SoftMAX® PRO with excitation at 530 nm and emission 590 nm. For the antibody blocking assay, 1% normal human serum was preincubated with 1-10 μg/ml of anti-APOL1 antibody or media at room temperature for 20 minutes followed by addition of trypanosomes. After 16 h, the Alamar Blue assay was performed as above and background values for media only were subtracted and % blocking calculated by normalizing to no antibody control.
Trypanosoma brucei brucei were obtained under MTA from ATCC and cultured in HMI-9 media containing IMDM (Genentech), heat-inactivated (56° C. for 30 min) FBS (Seradigm IXL9/06807/GEN), 1% serum plus (Sigma 14008C), HMI-9 (Genentech) and 1% hypoxanthine (Genentech). Trypanosome lysis was performed by treating 1×10⁵ Trypanosomes with serial dilutions of NHS or recombinant APOL1 for 16 h in a total of 100 μl. Live cell read out was done by the Alamar Blue assay as per the manufacturer's protocol (30) (Thermo Fisher, DAL1100). Briefly 10 μl of Alamar Blue was added to each well, incubated at 37° C. for 4 h. Red fluorescence, indicating live trypanosomes, was measured on a SpectraMax fluorimeter powered by SoftMAX PRO with excitation at 530 nm and emission 590 nm. For the antibody blocking assay, 1% normal human serum was preincubated with 1-10 μg/ml of anti-APOL1 antibody or media at room temperature for 20 mins followed by addition of trypanosomes.
B1: the binding result is “binds”.

On to B2, for which the binding result is “binds”.

Consider B3, for which the binding result is listed as “binds”.

B5: the binding result is “binds”.

Turning to B6, the binding result was “binds”.

Take B4: the binding result is on record as “binds”.

The values are drawn from US20230071609A1 (Genentech, published 2023).
